Laboratory results: patent US20030104423A1 (WISCONSIN ALUMNI RESEARCH FOUNDATION, published 2003)

Assays:
[1] = molecular target: T1, β′ 1-1407 K280E with C-terminal His6 (pTA603) (Escherichia coli, UniProt P0A8T7 1-1407); experiment: Assembly Eσ32 holo: co-purification with His6-β′ from cells, Western blot; grade
T1 construct: range 1-1407
Protocol: (§1) The cultures were grown at 37° C. with shaking until the A₆₀₀=0.4 for log phase assays and 2 hours longer (A₆₀₀ about 2.0) for the early stationary phase assays. The cells were harvested by centrifugation at 6,000 rpm for 10 minutes and stored at −20° C. until use. The cell pellets were resuspended in 5 ml TE (10 mM Tris-HCl, pH 7.9 and 0.1 mM EDTA) plus 0.15 M NaCl and lysozyme (0.1 mg/ml) then incubated on ice for 15 minutes. The cells were sonicated 2×30 seconds and centrifuged for 25 minutes at 27,000× g to pellet the insoluble material. […] The column was washed with 15 ml TE plus 0.15 M NaCl followed by a second wash with 10 ml TE plus 0.5 M NaCl. The protein was eluted from the column with 4 ml TE plus 0.7 M NaCl and 30% propylene glycol. The eluted sample (4 ml) was diluted with 6 ml buffer B (20 mM Tris-HCl, pH 7.9, 500 mM NaCl, 5 mM imidazole, 0.1% (v/v) Tween 20, and 10% (v/v) glycerol) and loaded (2×) onto 500 μl of Ni²⁺-NTA resin. The resin was washed (2×) with 5 ml of buffer B and eluted with 0.5 ml buffer B plus 0.25 M imidazole. Samples from the elution fractions were assayed by Western blot as described above using Mabs to each subunit or a factor. The secondary antibodies were horseradish peroxidase-labeled goat antimouse IgG antibodies and the signal was generated using the ECL+ substrate system (Amersham) and detected using the STORM FluoroImager and quantitated with IMAGEQUANT software (Molecular Dynamics).

[2] = molecular target: T2, β′ 1-1407 N266D with C-terminal His6 (pTA600) (Escherichia coli, UniProt P0A8T7 1-1407); experiment: as above
T2 construct: range 1-1407
Protocol: as §1

[3] = molecular target: T3, β′ 1-1407 R275Q with C-terminal His6 (pTA602) (Escherichia coli, UniProt P0A8T7 1-1407); experiment: as above
T3 construct: range 1-1407
Protocol: as §1

[4] = molecular target: T4, β′ 1-1407 N309D with C-terminal His6 (pTA609) (Escherichia coli, UniProt P0A8T7 1-1407); experiment: as above
T4 construct: range 1-1407
Protocol: as §1

[5] = molecular target: T5, β′ 1-1407 wild type with C-terminal His6 (pTA577) (Escherichia coli, UniProt P0A8T7 1-1407); experiment: as above
T5 construct: range 1-1407; also called wt; wild type β′
Protocol: as §1

[6] = molecular target: T6, β′ 1-1407 R297S with C-terminal His6 (pTA606) (Escherichia coli, UniProt P0A8T7 1-1407); experiment: as above
T6 construct: range 1-1407
Protocol: as §1

[7] = molecular target: T7, β′ 1-1407 Q300E with C-terminal His6 (pTA607) (Escherichia coli, UniProt P0A8T7 1-1407); experiment: as above
T7 construct: range 1-1407
Protocol: as §1

[8] = molecular target: T8, β′ 1-1407 Y269A with C-terminal His6 (pTA601) (Escherichia coli, UniProt P0A8T7 1-1407); experiment: as above
T8 construct: range 1-1407
Protocol: as §1

[9] = molecular target: T9, β′ 1-1407 A302D with C-terminal His6 (pTA608) (Escherichia coli, UniProt P0A8T7 1-1407); experiment: as above
T9 construct: range 1-1407
Protocol: as §1

[10] = molecular target: T10, β′ 1-1407 R293Q with C-terminal His6 (pTA604) (Escherichia coli, UniProt P0A8T7 1-1407); experiment: as above
T10 construct: range 1-1407
Protocol: as §1

[11] = molecular target: T11, β′ 1-1407 E295K with C-terminal His6 (pTA605) (Escherichia coli, UniProt P0A8T7 1-1407); experiment: as above
T11 construct: range 1-1407
Protocol: as §1

[12] = molecular target: T5, β′ 1-1407 wild type with C-terminal …; experiment: co-purification with His6-β′ from cells, Western blot
[13] = molecular target: T6, β′ 1-1407 R297S with C-terminal His6 …; experiment: as above
[14] = molecular target: T7, β′ 1-1407 Q300E with C-terminal His6 …; experiment: as above
[15] = molecular target: T12, σ70, native, untagged (pLN12) (Escherichia coli, UniProt P00579 1-613); experiment: Ni-NTA co-immobilization, SDS-PAGE
T12 construct: range 1-613; also called native ?^70

[16] = molecular target: T13, Bovine serum albumin (bovine, UniProt P02769 25-607); experiment: Ni-NTA co-immobilization, SDS-PAGE
T13 construct: also called BSA
T13 sequence (P02769 25-607 limits assumed): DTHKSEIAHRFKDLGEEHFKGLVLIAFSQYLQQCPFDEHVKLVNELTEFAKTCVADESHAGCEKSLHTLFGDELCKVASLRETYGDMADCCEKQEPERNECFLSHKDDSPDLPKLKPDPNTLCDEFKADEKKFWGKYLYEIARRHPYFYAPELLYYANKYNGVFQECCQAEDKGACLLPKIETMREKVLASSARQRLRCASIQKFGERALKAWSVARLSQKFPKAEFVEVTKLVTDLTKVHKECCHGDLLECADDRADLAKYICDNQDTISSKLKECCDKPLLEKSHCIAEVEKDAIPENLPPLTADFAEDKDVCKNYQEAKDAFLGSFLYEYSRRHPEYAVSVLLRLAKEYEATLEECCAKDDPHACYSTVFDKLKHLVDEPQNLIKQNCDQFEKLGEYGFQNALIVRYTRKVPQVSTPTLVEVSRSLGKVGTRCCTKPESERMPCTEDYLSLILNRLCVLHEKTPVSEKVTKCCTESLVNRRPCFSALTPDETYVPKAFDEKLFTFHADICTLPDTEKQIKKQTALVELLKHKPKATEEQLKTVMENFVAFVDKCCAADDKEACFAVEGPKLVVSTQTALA

B1: σ32 of E. coli (the cell's own) (other)
chain: MTDKMQSLALAPVGNLDSYIRAANAWPMLSADEERALAEKLHYHGDLEAAKTLILSHLRFVVHIARNYAGYGLPQADLIQEGNIGLMKAVRRFNPEVGVRLVSFAVHWIKAEIHEYVLRNWRIVKVATTKAQRKLFFNLRKTKQRLGWFNQDEVEMVARELGVTSKDVREMESRMAAQDMTFDLSSDDDSDSQPMAPVLYLQDKSSNFADGIEDDNWEEQAANRLTDAMQGLDERSQDIIRARWLDEDNKSTLQELADRYGVSAERVRQLEKNAMKKLRAAIEA
notes: also called E?32
- binding result [1]: binds
- binding result [2]: no binding
- binding result [3]: no binding
- binding result [4]: binds
- binding result [5]: binds
- binding result [6]: binds
- binding result [7]: binds
- binding result [8]: binds
- binding result [9]: no binding
- binding result [10]: binds
- binding result [11]: no binding

B2: σF of E. coli (the cell's own) (other)
chain: MNSLYTAEGVMDKHSLWQRYVPLVRHEALRLQVRLPASVELDDLLQAGGIGLLNAVERYDALQGTAFTTYAVQRIRGAMLDELRSRDWVPRSVRRNAREVAQAIGQLEQELGRNATETEVAERLGIDIADYRQMLLDTNNSQLFSYDEWREEHGDSIELVTDDHQRENPLQQLLDSNLRQRVMEAIETLPEREKLVLTLYYQEELNLKEIGAVLEVGESRVSQLHSQAIKRLRTKLGKL
- binding result [12]: binds
- binding result [13]: binds
- binding result [14]: binds

B3: His6-HMK-β′1-309 (pTA525) (enzyme)
chain: MKDLLKFLKAQTKTEEFDAIKIALASPDMIRSWSFGEVKKPETINYRTFKPERDGLFCARIFGPVKDYECLCGKYKRLKHRGVICEKCGVEVTQTKVRRERMGHIELASPTAHIWFLKSLPSRIGLLLDMPLRDIERVLYFESYVVIEGGMTNLERQQILTEEQYLDALEEFGDEFDAKMGAEAIQALLKSMDLEQECEQLREELNETNSETKRKKLTKRIKLLEAFVQSGNKPEWMILTVLPVLPPDLRPLVPLDGGRFATSDLNDLYRRVINRNNRLKRLLDLAAPDIIVRNEKRMLQEAVDALLDN
- binding result [15]: binds
- binding result [16]: no binding
